We go through seven molecules from patent US20110178027A1 (published 2011).

Test [1] addresses T1, furin (UniProt P09958 108-715).
The target of a further test is T2, PC1/3 (UniProt P29120 111-753).
T2 chain: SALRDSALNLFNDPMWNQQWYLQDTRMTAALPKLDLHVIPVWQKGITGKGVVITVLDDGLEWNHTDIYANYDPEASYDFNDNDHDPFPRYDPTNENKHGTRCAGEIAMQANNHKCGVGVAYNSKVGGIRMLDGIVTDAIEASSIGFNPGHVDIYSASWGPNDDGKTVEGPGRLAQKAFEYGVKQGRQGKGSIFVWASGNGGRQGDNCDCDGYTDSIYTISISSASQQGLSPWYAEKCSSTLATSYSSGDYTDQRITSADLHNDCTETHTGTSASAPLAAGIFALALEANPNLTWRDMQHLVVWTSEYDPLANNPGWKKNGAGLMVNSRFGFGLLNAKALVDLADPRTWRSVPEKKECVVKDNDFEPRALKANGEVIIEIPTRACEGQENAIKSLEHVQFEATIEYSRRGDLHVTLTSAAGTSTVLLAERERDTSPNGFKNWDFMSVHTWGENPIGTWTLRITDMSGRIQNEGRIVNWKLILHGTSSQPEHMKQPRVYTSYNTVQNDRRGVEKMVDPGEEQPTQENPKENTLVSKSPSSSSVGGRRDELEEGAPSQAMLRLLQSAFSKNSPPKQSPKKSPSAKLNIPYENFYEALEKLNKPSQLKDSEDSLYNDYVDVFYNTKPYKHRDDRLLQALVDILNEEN
Kind of test: enzyme inhibition.

In a further test the target is T3, PC5/6 (UniProt Q92824 115-913).
T3 chain: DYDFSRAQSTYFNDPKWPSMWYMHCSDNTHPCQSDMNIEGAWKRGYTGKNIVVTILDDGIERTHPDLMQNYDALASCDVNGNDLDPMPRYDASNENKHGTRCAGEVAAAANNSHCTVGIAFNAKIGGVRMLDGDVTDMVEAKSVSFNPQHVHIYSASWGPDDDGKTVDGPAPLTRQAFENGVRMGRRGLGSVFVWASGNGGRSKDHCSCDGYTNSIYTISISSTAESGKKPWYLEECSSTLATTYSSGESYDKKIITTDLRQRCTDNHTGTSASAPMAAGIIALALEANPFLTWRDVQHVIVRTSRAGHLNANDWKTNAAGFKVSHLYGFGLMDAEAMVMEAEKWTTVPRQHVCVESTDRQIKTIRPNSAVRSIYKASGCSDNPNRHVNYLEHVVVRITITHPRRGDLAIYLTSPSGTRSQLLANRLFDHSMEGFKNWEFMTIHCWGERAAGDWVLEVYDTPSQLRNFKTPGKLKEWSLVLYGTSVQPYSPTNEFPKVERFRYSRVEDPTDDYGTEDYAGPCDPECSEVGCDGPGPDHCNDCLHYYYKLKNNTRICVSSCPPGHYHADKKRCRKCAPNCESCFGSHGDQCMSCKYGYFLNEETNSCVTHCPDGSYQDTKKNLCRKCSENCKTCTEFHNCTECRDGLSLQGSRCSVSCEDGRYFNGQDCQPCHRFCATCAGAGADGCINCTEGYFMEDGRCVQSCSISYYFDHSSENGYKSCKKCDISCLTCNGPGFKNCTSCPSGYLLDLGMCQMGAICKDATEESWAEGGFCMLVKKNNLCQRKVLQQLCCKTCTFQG
Nature of the test: enzyme inhibition.

In a further test the target is T4, PC7 (UniProt Q16549 142-667).
T4 chain: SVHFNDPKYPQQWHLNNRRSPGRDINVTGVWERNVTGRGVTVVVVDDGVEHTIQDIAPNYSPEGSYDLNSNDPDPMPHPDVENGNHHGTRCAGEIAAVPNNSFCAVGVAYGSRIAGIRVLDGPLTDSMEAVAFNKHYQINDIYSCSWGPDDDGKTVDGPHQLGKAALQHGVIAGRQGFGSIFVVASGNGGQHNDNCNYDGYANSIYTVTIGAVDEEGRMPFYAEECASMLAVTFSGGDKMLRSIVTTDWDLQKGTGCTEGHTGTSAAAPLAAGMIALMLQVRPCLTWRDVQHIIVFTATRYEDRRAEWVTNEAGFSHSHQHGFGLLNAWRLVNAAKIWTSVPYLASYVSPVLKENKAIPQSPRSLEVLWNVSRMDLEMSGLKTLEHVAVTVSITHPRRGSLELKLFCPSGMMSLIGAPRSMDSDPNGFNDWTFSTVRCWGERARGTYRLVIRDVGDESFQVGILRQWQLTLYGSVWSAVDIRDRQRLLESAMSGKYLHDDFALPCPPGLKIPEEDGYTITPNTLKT
Kind of test: enzyme inhibition.

For a further test, the target named is T5, PC2 (UniProt P16519 110-638).
T5 chain: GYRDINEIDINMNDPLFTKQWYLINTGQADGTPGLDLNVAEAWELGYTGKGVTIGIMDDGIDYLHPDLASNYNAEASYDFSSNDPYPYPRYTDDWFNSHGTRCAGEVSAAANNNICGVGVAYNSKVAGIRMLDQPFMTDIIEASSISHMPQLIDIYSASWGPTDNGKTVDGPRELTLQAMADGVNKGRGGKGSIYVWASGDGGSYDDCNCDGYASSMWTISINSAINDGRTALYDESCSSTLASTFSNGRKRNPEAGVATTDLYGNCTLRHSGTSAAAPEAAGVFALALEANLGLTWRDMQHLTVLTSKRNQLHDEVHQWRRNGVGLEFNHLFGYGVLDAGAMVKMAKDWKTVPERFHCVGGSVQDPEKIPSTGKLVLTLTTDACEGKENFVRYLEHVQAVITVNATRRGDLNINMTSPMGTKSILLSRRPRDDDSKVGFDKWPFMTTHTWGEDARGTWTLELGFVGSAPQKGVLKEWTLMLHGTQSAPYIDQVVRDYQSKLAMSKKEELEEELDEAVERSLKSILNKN
Kind of test: enzyme inhibition.

The target in test [2] is T1, furin. Nature of the test: enzyme inhibition.
In the next test the target is T6, PACE4 (UniProt P29122 150-969).
T6 chain: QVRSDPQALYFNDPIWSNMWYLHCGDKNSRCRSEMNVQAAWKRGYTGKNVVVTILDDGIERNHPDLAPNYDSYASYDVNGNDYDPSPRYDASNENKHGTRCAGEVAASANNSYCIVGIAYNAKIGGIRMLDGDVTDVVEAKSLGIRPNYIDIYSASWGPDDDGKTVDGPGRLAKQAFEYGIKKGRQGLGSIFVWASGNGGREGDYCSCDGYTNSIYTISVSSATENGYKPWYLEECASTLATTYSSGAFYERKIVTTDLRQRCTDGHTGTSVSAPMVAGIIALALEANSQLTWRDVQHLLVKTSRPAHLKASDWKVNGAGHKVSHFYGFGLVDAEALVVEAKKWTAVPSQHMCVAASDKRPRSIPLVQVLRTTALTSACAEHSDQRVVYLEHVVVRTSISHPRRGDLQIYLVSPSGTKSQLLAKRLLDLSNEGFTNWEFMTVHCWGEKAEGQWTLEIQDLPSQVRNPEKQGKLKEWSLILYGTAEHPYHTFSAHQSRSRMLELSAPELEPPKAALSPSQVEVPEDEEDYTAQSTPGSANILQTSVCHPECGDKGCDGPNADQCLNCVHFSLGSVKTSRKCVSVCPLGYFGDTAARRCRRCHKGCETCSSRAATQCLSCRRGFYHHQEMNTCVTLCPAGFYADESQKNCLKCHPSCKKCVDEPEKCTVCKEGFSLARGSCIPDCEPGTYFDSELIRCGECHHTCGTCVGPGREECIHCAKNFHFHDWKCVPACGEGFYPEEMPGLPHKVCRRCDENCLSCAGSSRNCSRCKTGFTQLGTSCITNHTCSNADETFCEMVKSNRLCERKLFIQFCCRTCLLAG
Nature of the test: enzyme inhibition.

Where two headings read alike, the source gives them in different places. No end group written: not given here.

T1 sequence (P09958 108-715): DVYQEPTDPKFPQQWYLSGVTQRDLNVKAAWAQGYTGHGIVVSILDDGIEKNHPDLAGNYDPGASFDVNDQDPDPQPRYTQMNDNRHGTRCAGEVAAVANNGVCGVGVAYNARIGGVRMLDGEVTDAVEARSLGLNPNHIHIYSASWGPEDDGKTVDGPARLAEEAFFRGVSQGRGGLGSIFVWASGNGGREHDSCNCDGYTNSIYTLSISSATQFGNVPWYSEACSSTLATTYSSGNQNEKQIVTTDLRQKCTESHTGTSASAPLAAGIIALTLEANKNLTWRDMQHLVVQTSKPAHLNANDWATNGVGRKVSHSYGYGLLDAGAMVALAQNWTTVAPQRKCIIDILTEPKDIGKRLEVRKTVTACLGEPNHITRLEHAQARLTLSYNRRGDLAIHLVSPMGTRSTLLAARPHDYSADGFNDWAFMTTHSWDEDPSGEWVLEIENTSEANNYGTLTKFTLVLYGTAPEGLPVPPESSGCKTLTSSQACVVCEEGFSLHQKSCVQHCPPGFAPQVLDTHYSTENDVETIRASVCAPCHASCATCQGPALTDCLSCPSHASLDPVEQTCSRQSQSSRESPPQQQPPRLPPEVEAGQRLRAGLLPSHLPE

Consider LLLLRVKR-NH2 [LLLLRVKR-NH2], for which affinity with furin [1] was put at a Ki of 1140 nM.
Regarding LLRVKR-NH2 [LLRVKR-NH2], the inhibition constant Ki amounted to 540 nM with furin [1]; 170 nM with PC1/3; 130 nM with PC5/6; 100 nM with PC7; 3270 nM with PC2.
In the case of LLLRVKR-NH2 [LLLRVKR-NH2], the Ki with PC1/3 came out at 240 nM; with furin [2], 980 nM; with PC5/6 it was 340 nM; with PC7, 50 nM; with PC2, 12900 nM.
With LLLLLRVKR-NH2 [LLLLLRVKR-NH2], the Ki with PC1/3 turned out to be 370 nM; with furin [2] it was 1500 nM; in the test with PC7, 40 nM; in the test with PC2 it was 4830 nM.
Take LLLLLLRVKR-NH2 [LLLLLLRVKR-NH2]: the inhibition constant (Ki) came out at 1160 nM in the test with PC1/3, 1390 nM with furin [2], 30 nM with PC7 and 4550 nM with PC2.
For the molecule LRVKR-NH2 [LRVKR-NH2], the Ki with PC1/3 stood at 580 nM; with furin [2], 550 nM; in the test with PC5/6, 360 nM; with PC7 it was 2490 nM.
For the molecule RVKR-NH2 [RVKR-NH2], the Ki with PC1/3 came out at 1450 nM; with PACE4, 4340 nM; with furin [2], 8110 nM; with PC5/6 it was 5570 nM; in the test with PC7, 10400 nM.
